# Laboratory results as given in patent US20090304686A1, “INTERFERING IN ACTIVATION OF AN IMMUNE CELL BY INFLUENCING INTERACTION OF LAIR AND COLLAGEN” (UNIVERSOTAIR MEDISCH CENTRUM UTRECHT, priority 2006, published 2009).
# T1: human collagen type III (Homo sapiens, UniProt P02461)
# T1 construct: purchased Sigma
# T1 sequence (P02461 154-1221 limits assumed): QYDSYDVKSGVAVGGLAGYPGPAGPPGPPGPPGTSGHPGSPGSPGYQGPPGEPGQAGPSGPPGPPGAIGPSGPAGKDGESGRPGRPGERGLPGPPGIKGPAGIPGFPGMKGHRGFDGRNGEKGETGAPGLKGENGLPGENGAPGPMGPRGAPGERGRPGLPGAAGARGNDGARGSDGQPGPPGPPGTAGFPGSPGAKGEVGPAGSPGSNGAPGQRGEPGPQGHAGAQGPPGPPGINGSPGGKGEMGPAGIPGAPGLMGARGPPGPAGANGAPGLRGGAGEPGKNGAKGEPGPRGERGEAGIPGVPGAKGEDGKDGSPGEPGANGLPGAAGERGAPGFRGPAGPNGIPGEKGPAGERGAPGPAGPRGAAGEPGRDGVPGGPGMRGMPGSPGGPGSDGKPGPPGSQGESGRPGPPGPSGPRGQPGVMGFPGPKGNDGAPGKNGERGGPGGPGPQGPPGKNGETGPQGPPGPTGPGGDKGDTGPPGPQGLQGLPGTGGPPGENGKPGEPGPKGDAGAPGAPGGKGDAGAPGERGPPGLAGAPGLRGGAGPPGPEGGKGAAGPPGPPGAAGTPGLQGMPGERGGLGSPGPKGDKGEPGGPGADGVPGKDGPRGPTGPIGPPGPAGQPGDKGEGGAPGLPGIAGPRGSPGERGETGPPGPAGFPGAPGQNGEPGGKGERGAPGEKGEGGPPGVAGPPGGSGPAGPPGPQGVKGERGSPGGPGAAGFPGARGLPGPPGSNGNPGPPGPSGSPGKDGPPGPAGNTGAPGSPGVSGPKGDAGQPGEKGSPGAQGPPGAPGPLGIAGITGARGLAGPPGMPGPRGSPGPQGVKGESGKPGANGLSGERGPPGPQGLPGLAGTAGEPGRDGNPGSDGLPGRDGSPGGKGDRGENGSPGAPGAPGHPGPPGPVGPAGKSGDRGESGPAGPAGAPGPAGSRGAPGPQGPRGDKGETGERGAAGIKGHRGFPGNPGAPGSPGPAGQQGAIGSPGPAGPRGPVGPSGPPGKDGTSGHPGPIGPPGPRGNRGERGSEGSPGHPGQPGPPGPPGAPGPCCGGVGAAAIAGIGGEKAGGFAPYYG
# T2: human collagen XVII (Homo sapiens, UniProt Q9UMD9)
# T2 construct: Full-length human collagen XVII, HIS-tagged human collagen XIII, and human KIR3DL1 were kindly provided; expressed in transfected cells; host or cells: Ba/F3 (retroviral transduction)
# T2 sequence (Q9UMD9 1-1497): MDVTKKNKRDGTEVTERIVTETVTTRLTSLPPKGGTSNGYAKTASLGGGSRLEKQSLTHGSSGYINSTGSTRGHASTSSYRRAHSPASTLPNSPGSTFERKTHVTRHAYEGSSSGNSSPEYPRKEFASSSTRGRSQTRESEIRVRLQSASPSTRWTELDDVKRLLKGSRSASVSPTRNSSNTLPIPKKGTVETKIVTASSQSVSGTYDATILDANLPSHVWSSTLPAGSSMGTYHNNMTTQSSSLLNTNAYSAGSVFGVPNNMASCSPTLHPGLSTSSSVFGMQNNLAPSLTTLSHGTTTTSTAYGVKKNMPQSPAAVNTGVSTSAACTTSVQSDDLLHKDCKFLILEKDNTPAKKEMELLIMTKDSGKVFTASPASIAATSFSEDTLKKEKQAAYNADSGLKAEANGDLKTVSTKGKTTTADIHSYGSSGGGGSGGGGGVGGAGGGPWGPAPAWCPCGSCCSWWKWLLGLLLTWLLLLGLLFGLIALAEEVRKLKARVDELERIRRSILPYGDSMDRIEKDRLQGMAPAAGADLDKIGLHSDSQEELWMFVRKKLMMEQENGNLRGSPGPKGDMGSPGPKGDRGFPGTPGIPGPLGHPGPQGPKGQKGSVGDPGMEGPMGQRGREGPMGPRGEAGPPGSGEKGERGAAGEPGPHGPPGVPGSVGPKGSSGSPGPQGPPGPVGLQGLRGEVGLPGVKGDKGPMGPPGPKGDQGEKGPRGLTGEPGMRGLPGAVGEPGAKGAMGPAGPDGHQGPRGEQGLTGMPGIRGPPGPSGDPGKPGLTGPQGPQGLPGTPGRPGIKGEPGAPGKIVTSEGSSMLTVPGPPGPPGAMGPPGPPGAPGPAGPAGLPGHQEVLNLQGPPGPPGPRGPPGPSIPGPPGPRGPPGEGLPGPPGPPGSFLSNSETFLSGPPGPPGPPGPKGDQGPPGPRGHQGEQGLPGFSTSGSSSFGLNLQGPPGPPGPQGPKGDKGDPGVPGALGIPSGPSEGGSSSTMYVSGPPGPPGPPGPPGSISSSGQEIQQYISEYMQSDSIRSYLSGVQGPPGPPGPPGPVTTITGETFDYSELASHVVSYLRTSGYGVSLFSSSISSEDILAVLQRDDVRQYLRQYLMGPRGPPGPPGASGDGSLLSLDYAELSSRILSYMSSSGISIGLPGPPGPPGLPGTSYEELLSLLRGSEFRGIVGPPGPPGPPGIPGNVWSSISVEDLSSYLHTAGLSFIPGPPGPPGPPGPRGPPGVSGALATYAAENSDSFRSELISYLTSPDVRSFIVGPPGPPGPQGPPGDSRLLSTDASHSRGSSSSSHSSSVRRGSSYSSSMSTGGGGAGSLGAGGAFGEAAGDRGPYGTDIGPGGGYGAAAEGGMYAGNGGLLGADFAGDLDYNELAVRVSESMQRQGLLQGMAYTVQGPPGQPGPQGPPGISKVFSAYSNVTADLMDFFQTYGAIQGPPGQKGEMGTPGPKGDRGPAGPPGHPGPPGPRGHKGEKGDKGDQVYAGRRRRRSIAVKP
# Legend:
# [1] = system: hLAIR-1/collagen interaction; test: Blocking of binding of hLAIR-1 expressing K562 cells to plate-bound collagens I and III; format: cell-based, human; settings: pre-incubation of plate-bound collagens
# Experimental: Purified commercial collagens I, III (Sigma), II (Chemicon International), or BSA (100 μl/well, 20 μg/ml in PBS, 2 mM acetic acid) were coated overnight at 4° C. in 96-well MAXIsorp (Nunc) flat-bottom plates. After washings, wells were blocked with 1% (w/v) BSA. Meanwhile, 5×10^6 cells/ml wild type K562 cells or K562 transfectants were fluorescently labeled for 30 min at 37° C. with 5 μM calceine AM (Molecular Probes) in PBS. Cells were washed twice with RPMI/1% FCS and 100 μl medium of 1.5×10^6 cells/ml cells was added to each well and plates were incubated at 37° C. for 2 h. Input fluorescence was determined using a fluorescence plate reader (Fluoroskan Ascent, Thermo Labsystems), the plates were firmly flicked and washed for six times in culture medium. The retained fluorescence was determined for each well as a percentage of input fluorescence.
# 96-well MAXIsorp flat-bottom plates (Nunc) were coated overnight at 4° C. with purified collagens I or III (Sigma, 2 and 5 μg/ml respectively) or BSA (5 μg/ml) in 100 μl PBS, supplemented with 2 mM acetic acid. 5×10^6 cells/ml wild-type K562 or K562 stably transfected with hLAIR-1 were assayed for their capacity to adhere to the collagens in the 96 well plates as described before(15).
# human collagen type I = target: T3, human collagen type I (Homo sapiens, UniProt P02452+P08123); test: Surface plasmon resonance (BIAcore) binding of LAIR-IgG fusion proteins to immobilized collagen I
# T3 construct: purchased Sigma
# Experimental: (§1) Surface plasmon resonance (BIAcore) binding studies were performed using a BIAcore2000 system (BIAcore AB, Uppsala, Sweden). Approximately 2000-3000 response units (RU) of acid-soluble human collagen type I or III (Sigma) were immobilized on a CM5 biosensor chip using the amine coupling kit as instructed by the supplier. Immobilized triple-helical peptides composed of GCO(GPO)10GCOG-NH2 ((GPO)10, also known as collagen-related peptide, CRP^6) and GCP(GPP)10GCPG-NH2 ((GPP)10) were described previously^6. Approximately 250 RU (GPP)10 or (GPO)10 peptide trimers were immobilized using a cysteine coupling kit according manufacturers instructions. Analysis was performed in buffer (125 mM NaCl, 2.5 mM CaCl2, 0.005% (v/v) Tween 20, and 25 mM Hepes, (pH 7.4)) at 25° C. at a flow rate of 20 μl/min for collagen I and III interaction-studies and 5 μl/min for the immobilized peptides. […] Increasing concentrations of hLAIR-1-IgG were injected and allowed to reach an equilibrium plateau for 10 minutes. The delay between injections was 13 min, during which time the biosensor chip was flushed with buffer. In case of peptide-binding studies, biosensor chips were regenerated by injection of 0.1 M H3PO4 (2 min, 5 μl/min).
# (§2) Dissociation constants (Kd) and the number of binding sites expressed as the response at infinite hLAIR-1-IgG concentration (Bmax) were calculated as follows. First, the response at equilibrium (Req) was calculated for each association curve. Subsequently, Kd and Bmax were determined from the binding isotherms (Req plotted against hLAIR-1-IgG concentration) by fitting equation Req=Bmax*[hLAIR-1-IgG]/(Kd+[hLAIR-1-IgG]). The fit was calculated using computer program GraphPad Prism (GraphPad Prism version 3.00 for Windows; GraphPad Software, San Diego, Calif., USA). […]
# (§3) The surface plasmon resonance binding studies were performed as described before(15). LAIR-2-IgG dimer concentration was calculated based on a theoretical mass of 82.5 kDa.
# human collagen type III = target: T1, human collagen type III; test: Surface plasmon resonance (BIAcore) binding of LAIR-IgG fusion proteins to immobilized collagen III
# Experimental: as §1, §2, §3
# human collagen XVII = target: T2, human collagen XVII; test: LAIR fusion protein staining of Ba/F3 cells transfected with human collagen XVII; format: binding
# Experimental: Chimeric proteins of rat, mouse, and human LAIR-1 or human LAIR-2 fused to the Fc region of human IgG1 were prepared and cell lines were stained with these reagents in the absence or presence of blocking antibodies as described previously^11. When indicated, cells were incubated for 1 h with 100 units/ml chromatography purified C. histolyticum collagenase Type VII (Sigma) prior fusion-protein staining.
# [2] = system: endogenous hLAIR-1 ligand(s) on HT29 cells; test: Fusion protein blocking study on HT29 cells (flow cytometry); format: cell-based, human
# Experimental: For fusion protein blocking studies, chimeric proteins of the extracellular domain of hLAIR-1 or LAIR-2 fused to the Fc region of human IgG1 were prepared as described previously(19). HT29 cells were pre-treated with 10% normal mouse serum to block aspecific interactions. Subsequently, HT29 cells were incubated with unlabeled hLAIR-1-IgG or LAIR-2-IgG for 10 minutes at room temperature and subsequently incubated with biotinylated hLAIR-1-IgG or LAIR-2-IgG for 30 minutes at room temperature. Binding of biotinylated proteins was detected with allophycocyanin (APC) conjungated streptavidin (BD Biosciences, San Diego, Calif.) and cells were analyzed by flow cytometry (FACSCalibur™, BD).
# T3 sequence (P02452 162-1218 limits assumed): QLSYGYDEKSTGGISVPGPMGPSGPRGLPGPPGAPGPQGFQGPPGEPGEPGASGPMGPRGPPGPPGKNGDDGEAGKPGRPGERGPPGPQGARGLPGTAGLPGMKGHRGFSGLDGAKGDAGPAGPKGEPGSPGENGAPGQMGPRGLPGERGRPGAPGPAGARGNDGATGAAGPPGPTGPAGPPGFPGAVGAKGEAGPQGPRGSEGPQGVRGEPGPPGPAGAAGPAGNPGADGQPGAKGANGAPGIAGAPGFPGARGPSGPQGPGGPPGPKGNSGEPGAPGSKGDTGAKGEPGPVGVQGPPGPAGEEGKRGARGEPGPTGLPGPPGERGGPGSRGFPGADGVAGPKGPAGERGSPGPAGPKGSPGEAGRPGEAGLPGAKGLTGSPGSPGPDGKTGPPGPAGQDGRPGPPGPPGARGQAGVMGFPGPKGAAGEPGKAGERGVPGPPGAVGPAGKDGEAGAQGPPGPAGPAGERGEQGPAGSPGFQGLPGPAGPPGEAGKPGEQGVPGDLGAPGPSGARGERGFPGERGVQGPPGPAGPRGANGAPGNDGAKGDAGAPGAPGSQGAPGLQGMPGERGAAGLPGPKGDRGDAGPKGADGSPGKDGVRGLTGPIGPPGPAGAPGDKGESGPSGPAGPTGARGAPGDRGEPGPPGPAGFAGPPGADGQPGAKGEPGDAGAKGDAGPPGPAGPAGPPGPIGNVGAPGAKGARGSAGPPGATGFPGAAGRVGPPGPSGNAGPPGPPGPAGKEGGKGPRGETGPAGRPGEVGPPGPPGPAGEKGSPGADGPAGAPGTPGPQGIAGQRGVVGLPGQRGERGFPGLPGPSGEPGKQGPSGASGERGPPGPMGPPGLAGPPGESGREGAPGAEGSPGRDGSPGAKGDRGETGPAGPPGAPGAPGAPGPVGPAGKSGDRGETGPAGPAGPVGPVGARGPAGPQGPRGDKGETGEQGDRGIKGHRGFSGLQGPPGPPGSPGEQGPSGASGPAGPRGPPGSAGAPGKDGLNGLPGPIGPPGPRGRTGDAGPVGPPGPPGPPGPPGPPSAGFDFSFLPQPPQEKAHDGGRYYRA
# T3 sequence (P08123 80-1119 limits assumed): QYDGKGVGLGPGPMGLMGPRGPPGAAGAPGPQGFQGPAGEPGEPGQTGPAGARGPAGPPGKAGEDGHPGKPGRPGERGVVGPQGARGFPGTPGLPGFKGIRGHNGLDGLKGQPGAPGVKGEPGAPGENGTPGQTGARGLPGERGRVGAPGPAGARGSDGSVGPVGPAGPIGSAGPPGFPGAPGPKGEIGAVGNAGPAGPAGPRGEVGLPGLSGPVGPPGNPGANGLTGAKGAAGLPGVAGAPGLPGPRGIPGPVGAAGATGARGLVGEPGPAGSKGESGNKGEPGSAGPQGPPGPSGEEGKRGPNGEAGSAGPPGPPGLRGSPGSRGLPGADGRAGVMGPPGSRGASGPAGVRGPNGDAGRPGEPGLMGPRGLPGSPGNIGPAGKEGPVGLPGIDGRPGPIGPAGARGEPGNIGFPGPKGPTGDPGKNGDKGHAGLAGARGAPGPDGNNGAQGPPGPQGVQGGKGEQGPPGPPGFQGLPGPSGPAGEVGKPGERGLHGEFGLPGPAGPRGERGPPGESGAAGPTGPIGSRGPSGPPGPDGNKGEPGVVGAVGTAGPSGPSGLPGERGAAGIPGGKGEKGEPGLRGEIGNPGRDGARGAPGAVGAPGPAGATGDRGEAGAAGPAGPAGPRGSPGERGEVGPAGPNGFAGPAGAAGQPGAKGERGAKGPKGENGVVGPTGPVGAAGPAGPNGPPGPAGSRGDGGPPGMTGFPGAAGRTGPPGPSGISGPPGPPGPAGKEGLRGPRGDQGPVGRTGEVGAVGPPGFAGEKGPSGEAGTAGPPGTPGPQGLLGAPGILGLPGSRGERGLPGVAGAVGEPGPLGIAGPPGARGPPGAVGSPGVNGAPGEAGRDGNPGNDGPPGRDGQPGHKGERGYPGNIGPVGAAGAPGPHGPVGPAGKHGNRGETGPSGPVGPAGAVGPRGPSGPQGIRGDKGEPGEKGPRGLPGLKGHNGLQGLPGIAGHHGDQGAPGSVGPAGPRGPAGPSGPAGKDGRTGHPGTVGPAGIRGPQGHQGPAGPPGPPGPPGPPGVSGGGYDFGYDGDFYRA
binding to collagen I (in words) (human collagen type I),higher affinity as compared to most IgSF-members interacting with their ligands (human collagen type I; collagen I and III),binding to collagen III (in words) (human collagen type III),"dissociation from collagen (in words) (human collagen type III; hLAIR-1-IgG: collagen I and III, LAIR-2-IgG: collagen III, collagen I comparable)",binding to Ba/F3 cells stably transfected with human collagen XVII (human collagen XVII),Molecule,blocking of binding of hLAIR-1 expressing K562 cells to plate-bound collagens I and III [1],number of LAIR molecules / binding sites per single triple-helical collagen I molecule (Bmax) (human collagen type I; from Bmax of binding isotherm),number of LAIR molecules / binding sites per single triple-helical collagen III molecule (Bmax) (human collagen type III; from Bmax of binding isotherm),biotinylated LAIR-2-IgG staining of HT29 cells after pre-incubation [2]
,,,,,wild-type LAIR-2: wild-type LAIR-2 protein in concentrated supernatant from LAIR-2-transfected 293T cells (protein) QEGALPRPSISAEPGTVISPGSHVTFMCRGPVGVQTFRLEREDRAKYKDSYNVFRLGPSESEARFHIDSVSEGNAGLYRCLYYKPPGWSEHSDFLELLVKGTVPGTEASGFDAP,blocked,,,
high affinity,20-1000 fold,high affinity,relatively slow dissociation,specific binding,"hLAIR-1-IgG: Chimeric protein of human LAIR-1 fused to the Fc region of human IgG1 (protein, left off: a dimerising Fc or GST, Chimeric protein of human LAIR-1 fused to the Fc region of human IgG1) QEEDLPRPSISAEPGTVIPLGSHVTFVCRGPVGVQTFRLERDSRSTYNDTEDVSQASPSESEARFRIDSVREGNAGLYRCIYYKPPKWSEQSDYLELLVKESSGGPDSPDTEPGSSAGPTQRPSDNSHNEHAPASQGLKAEHLY",,approximately 10.4,~9.7,reduced
